Measured values taken from patent publication US20120135912A1 (PERSEID THERAPEUTICS, published 2012).

Target: T1, human VLA4 (integrin alpha4beta1) on the surface of U937 cells (human, UniProt P13612 34-1032; P05556 21-798)
T1 construct: whole, on cells; Endogenous VLA4 of U937 cells; assay buffer held 1 mM each of CaCl2, MgCl2 and MnCl2; also called cell-surface human VLA4
Experiment: static cell adhesion assay: calcein-labelled U937 cells on wells coated with 7D-VCAM-1, buffer with 1 mM MnCl2 (Example 13)
Procedure: Prior to assaying, the U937 cells were re-suspended in labeling buffer (RPMI 1640 culture media without phenol red, 10% FBS; Invitrogen), then labeled with 0.5 μg/ml Calcein-AM at 37° C. for 30 minutes on a rotator. Subsequently, the cells were washed three times with labeling buffer then resuspended at 5×10^6 cells/ml in assay buffer (HEPES CaMgMn buffer: 50 mM HEPES, 150 mM NaCl, 1 mM CaCl₂, 1 mM MgCl₂, 1 mM MnCl2 pH 7.4).
The test compounds (i.e., the 2D-VCAM-1 variant polypeptides) were diluted in dilution buffer and added to VCAM-1-coated plates. […] Plates were spun down at 280×g for 5 minutes with assay buffer decanted by inversion before measuring fluorescence intensity (excitation=485 nm, emission=530 nm) with LJL Analyst HT 96.384 (Molecular Devices, Sunnyvale, Calif.).
FIG. 5 is a graph showing the cell adhesion index for anti-VLA4-antibody (used as a positive control for maximal inhibition of cell adherence), dilution buffer alone (“no treatment”, a control to show maximal cell adherence to the immobilized VCAM-1), 2D-VCAM-1 valiant Clone 46 (SEQ ID NO:12), Q38L-2D-VCAM-1 polypeptide (SEQ ID NO:10), and human 2D-VCAM-1 (SEQ ID NO:2). The cell adhesion index was calculated as (fluorescence intensity, VCAM-coated well)/(fluorescence intensity, non-CAM-1-coated well). […]

T1 sequence (P13612 34-1032, chain 1 of 2): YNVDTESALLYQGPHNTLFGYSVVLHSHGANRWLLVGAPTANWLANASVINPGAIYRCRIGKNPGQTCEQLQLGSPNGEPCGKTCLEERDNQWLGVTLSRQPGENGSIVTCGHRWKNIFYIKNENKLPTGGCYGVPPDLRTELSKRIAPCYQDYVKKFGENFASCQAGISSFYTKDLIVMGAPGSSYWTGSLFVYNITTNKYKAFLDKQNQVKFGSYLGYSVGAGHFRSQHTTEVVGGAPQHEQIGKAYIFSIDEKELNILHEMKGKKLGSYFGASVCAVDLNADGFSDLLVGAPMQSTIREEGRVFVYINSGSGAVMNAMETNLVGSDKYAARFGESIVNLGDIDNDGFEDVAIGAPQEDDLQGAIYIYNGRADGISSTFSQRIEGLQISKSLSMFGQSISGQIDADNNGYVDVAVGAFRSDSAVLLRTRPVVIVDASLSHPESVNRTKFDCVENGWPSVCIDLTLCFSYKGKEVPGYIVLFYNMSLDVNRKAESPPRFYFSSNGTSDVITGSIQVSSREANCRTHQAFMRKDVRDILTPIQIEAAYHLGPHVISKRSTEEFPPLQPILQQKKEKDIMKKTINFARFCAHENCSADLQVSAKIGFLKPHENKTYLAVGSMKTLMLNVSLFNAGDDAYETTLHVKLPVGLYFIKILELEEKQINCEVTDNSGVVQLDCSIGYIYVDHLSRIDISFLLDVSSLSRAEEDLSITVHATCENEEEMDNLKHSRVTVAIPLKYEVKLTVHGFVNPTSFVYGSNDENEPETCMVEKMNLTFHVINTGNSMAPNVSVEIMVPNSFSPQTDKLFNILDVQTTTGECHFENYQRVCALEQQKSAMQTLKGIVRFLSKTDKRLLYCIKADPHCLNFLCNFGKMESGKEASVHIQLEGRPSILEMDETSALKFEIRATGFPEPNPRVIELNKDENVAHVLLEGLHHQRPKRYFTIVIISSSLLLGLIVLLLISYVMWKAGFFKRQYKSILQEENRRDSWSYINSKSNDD
T1 sequence (P05556 21-798, chain 2 of 2): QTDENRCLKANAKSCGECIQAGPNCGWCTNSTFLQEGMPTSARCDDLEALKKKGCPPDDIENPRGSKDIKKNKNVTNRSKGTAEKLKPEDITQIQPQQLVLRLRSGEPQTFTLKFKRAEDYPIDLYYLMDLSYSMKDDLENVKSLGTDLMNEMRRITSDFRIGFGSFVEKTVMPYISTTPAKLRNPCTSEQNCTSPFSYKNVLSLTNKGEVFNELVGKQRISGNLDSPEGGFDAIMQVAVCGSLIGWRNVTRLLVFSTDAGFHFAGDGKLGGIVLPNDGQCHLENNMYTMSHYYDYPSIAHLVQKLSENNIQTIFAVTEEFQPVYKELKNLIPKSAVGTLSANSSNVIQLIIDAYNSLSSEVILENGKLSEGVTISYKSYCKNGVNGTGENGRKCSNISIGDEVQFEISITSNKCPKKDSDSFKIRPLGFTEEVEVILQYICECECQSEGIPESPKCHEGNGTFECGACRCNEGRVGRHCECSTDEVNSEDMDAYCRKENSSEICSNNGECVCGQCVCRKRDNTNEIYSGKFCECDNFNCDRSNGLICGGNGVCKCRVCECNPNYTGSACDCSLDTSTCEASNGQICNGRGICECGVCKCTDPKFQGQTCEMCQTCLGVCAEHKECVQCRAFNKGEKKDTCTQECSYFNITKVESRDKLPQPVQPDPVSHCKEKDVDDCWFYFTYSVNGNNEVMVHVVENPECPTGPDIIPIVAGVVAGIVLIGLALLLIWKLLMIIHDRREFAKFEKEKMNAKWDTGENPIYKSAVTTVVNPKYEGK

- binding result: binds
B1: recombinant human 7D-VCAM-1 (ligand)
chain: FKIETTPESRYLAQIGDSVSLTCSTTGCESPFFSWRTQIDSPLNGKVTNEGTTSTLTMNPVSFGNEHSYLCTATCESRKLEKGIQVEIYSFPKDPEIHLSGPLEAGKPITVKCSVADVYPFDRLEIDLLKGDHLMKSQEFLEDADRKSLETKSLEVTFTPVIEDIGKVLVCRAKLHIDEMDSVPTVRQAVKELQVYISPKNTVISVNPSTKLQEGGSVTMTCSSEGLPAPEIFWSKKLDNGNLQHLSGNATLTLIAMRMEDSGIYVCEGVNLIGKNRKEVELIVQEKPFTVEISPGPRIAAQIGDSVMLTCSVMGCESPSFSWRTQIDSPLSGKVRSEGTNSTLTLSPVSFENEHSYLCTVTCGHKKLEKGIQVELYSFPRDPEIEMSGGLVNGSSVTVSCKVPSVYPLDRLEIELLKGETILENIEFLEDTDMKSLENKSLEMTFIPTIEDTGKALVCQAKLHIDDMEFEPKQRQSTQTLYVNVAPRDTTVLVSPSSILEEGSSVNMTCLSQGFPAPKILWSRQLPNGELQPLSENATLTLISTKMEDSGVYLCEGINQAGRSRKEVELIIQVTPKDIKLTAFPSESVKEGDTVIISCTCGNVPETWIILKKKAETGDTVLKSIDGAYTIRKAQLKDAGVYECESKNKVGSQLRSLTL
notes: Bought from R&D Systems; also called immobilized VCAM-1; 7 domain form of VCAM-1
